Data as given in PMC9880977 (Computational and Structural Biotechnology Journal, 2023).

Experiments:
HaLF [1] = target: T1, HaLF (Heterobasidion irregulare, UniProt W4KBR7); test: spectrophotometric oxidation at […] nm, hyperbola or Hill fit; format: biochemical; settings: read-out: HaLF / KM; 100 mM citrate-phosphate pH 4; air O2
T1 sequence (W4KBR7 21-648): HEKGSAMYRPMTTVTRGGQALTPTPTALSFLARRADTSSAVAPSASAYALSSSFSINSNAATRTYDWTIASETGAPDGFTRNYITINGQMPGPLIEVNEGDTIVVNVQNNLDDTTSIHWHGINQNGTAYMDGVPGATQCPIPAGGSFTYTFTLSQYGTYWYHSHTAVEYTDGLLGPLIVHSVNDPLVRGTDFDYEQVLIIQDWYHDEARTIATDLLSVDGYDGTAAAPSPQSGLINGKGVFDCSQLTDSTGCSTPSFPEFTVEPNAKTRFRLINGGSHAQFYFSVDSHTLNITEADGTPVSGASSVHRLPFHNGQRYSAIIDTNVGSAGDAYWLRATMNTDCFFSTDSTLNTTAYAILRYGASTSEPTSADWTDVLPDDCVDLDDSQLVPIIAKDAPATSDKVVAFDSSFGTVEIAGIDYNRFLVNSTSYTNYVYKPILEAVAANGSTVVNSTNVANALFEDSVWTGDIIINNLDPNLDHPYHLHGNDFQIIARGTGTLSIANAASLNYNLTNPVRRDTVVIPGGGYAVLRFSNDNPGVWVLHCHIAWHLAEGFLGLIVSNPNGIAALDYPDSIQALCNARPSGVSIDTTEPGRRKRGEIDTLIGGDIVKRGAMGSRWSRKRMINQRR

HaLF [2] = target: T2, HaLF (Heterobasidion irregulare, UniProt W4KBR7, A247E/F364D); test: as above; format: biochemical; settings: read-out: HaLFA227E, F344D / KM; 100 mM citrate-phosphate pH 4; air O2
T2 sequence (W4KBR7 21-648 A247E/F364D): T1 sequence (W4KBR7 21-648)

COc1cccc(OC)c1O = test: purified protein; format: biochemical, Heterobasidion irregulare; settings: 100 mM citrate-phosphate pH 5, air O2
COc1ccccc1O = test: purified protein; format: biochemical, Heterobasidion irregulare; settings: 100 mM citrate-phosphate pH 5, air O2
[3] = test system: CCn1c(=NN=c2sc3cc(S(=O)(=O)O)ccc3n2CC)sc2cc(S(=O)(=O)O)ccc21; test: purified protein; settings: 100 mM citrate-phosphate pH 4, air O2
purified protein [4] = substrate: COc1cccc(OC)c1O; test: purified protein; format: biochemical, Heterobasidion irregulare; settings: 100 mM citrate-phosphate pH 5, air O2; remark: listed apart in the source
purified protein [5] = substrate: COc1ccccc1O; test: purified protein; format: biochemical, Heterobasidion irregulare; settings: 100 mM citrate-phosphate pH 5, air O2; remark: listed apart in the source
purified protein [6] = substrate: CCn1c(=NN=c2sc3cc(S(=O)(=O)O)ccc3n2CC)sc2cc(S(=O)(=O)O)ccc21; test: purified protein; settings: 100 mM citrate-phosphate pH 4, air O2; remark: listed apart in the source
purified protein [7] = substrate: Nc1ccccc1N; test: purified protein; settings: 100 mM citrate-phosphate pH 4, air O2

`CN(C)c1ccc(N)cc1` [DMPD, N,N-Dimethyl-1,4-phenylenediamine] showed a Km (HaLF [1]) of 8 ± 0.4 mM and a Km (HaLF [2]) of 9 ± 0.8 mM.

“HaLF (Heterobasidion irregulare TC 32-1; A247E/F364D)” showed a Km (COc1cccc(OC)c1O) of 3.8 ± 0.3 mM, a kcat (COc1cccc(OC)c1O) of 0.87 ± 0.03 s⁻¹ and a Km (COc1ccccc1O) of 31 ± 4 mM. It also gave a kcat (COc1ccccc1O) of 0.3 ± 0.02 s⁻¹, a Km [3] of 11 ± 1.5 mM and a kcat [3] of 16 ± 1 s⁻¹.

B1: HaLF (Heterobasidion irregulare TC 32-1) (protein)
chain: T1 sequence (W4KBR7 21-648)
B1 gave a Km (purified protein [4]) of 0.5 ± 0.05 mM, a kcat (purified protein [4]) of 122 ± 4 s⁻¹ and a Km (purified protein [5]) of 20 ± 5 mM. It also gave a kcat (purified protein [5]) of 3.7 ± 0.4 s⁻¹, a Km (purified protein [6]) of 4 ± 0.6 mM and a kcat (purified protein [6]) of 428 ± 14 s⁻¹. It also gave a Km (purified protein [7]) of 1.6 ± 0.3 mM and a kcat (purified protein [7]) of 26 ± 2 s⁻¹.
